Tests used:
hnRNPG RRMmut = hnRNPG RRMmut (Homo sapiens, UniProt P38159 1-391, K9A;F11A;R49A;F51A;F53A); experiment: limited proteolysis protection
hnRNPG wild-type [1] = target: T1, hnRNPG wild-type (Homo sapiens, UniProt P38159 1-391); experiment: limited proteolysis protection
hnRNPG wild-type [2] = target: T1, hnRNPG wild-type; experiment: spin-down

hnRNPG RRMmut, sequence (P38159 whole entry K9A/F11A/R49A/F51A/F53A): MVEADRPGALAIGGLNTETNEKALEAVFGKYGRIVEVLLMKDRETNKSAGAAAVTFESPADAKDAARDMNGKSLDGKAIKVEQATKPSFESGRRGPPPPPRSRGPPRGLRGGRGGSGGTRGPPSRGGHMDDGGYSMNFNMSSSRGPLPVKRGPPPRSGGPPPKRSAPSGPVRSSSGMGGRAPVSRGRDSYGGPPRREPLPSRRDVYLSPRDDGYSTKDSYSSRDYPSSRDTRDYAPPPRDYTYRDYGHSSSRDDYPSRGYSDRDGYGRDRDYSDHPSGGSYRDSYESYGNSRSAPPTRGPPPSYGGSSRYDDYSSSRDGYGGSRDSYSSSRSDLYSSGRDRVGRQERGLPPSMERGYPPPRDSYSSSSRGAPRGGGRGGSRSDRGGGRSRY
T1 sequence (P38159 whole entry): as the sequence (P38159 whole entry K9A/F11A/R49A/F51A/F53A) above, with A9K, A11F, A49R, A51F, A53F counted along it

| Binder | binding result (hnRNPG RRMmut) | binding result (hnRNPG wild-type [1]) | binding result (hnRNPG wild-type [2]) |
| --- | --- | --- | --- |
| SMN2exon7 RNA (ssRNA) RNA: GGUUUUAGACAAAAUCAAAAAGAAGGAAGGUGCUCACAUUCCUUAAAUUAAGGA | no binding | binds | – |
| AAUGUGAAGGACUUUCGUAACGGAAGUAAUUCAA (structured_RNA) [MALAT1 hairpin 2515-A] | no binding | – | binds |
| AAUGUGAAGGACUUUCGUAACGGAAGUAAUUCAA (structured_RNA, m6A at position 11) [MALAT1 hairpin 2515-m6A] | no binding | – | binds |
| GGGUACGACGGAUAUCGUGGGGGGGGAAAUUGCUUUCGGUUCCGACUCUG (structured_RNA) [WEc RNA] | no binding | binds | – |

From publication PMC6778029
